Target: mouse recombinant His-calmodulin, calcium-bound (mouse), P0DP26

INLKALAALAKKIL (modifications not checked) [Mastoparan, P01514 1-14]
Kd: 1.2 nM

Reference: US20210156867A1
